Test system: human BRS3 (hBRS3)
Experiment: Luciferase reporter, constitutive activity (WT, mutants, truncated; with/without inhibitor)
Format: cell-based
Conditions: constitutive, full-length hBRS3 and truncated N-hBRS3
Experimental: To detect constitutive activity of BRS3, HEK293 cells were seeded in 24-well plates and cotransfected with the CRE/NFAT-RE/SRF-RE/SRE luciferase reporter plasmids (50 ng), the BRS3 from different species, or BRS3 mutants with different doses (10 ng/50 ng/150 ng); after 24 h, cells were further incubated in serum-free media for another 12 h before luciferase assay. As for peptide supplementation treatment, HEK293 cells were cotransfected with the CRE/NFAT-RE/SRF-RE/SRE luciferase reporter plasmids (50 ng) and various genes (300 ng) of the bombesin receptor family. […] Luciferase activities were determined using luciferase assay kits (Beyotime, Shanghai, China) and normalized to β-galactosidase activity. All experiments were performed at least three times in triplicates. HEK293 cells transfected with pcDNA were used as a blank control in all luciferase experiments, and the fold was calculated compared to blank control.

[1] = third line, unlabelled, equals mean of the two replicates

B1: hBRS3 (protein)
chain: MAQRQPHSPNQTLISITNDTESSSSVVSNDNTNKGWSGDNSPGIEALCAIYITYAVIISVGILGNAILIKVFFKTKSMQTVPNIFITSLAFGDLLLLLTCVPVDATHYLAEGWLFGRIGCKVLSFIRLTSVGVSVFTLTILSADRYKAVVKPLERQPSNAILKTCVKAGCVWIVSMIFALPEAIFSNVYTFRDPNKNMTFESCTSYPVSKKLLQEIHSLLCFLVFYIIPLSIISVYYSLIARTLYKSTLNIPTEEQSHARKQIESRKRIARTVLVLVALFALCWLPNHLLYLYHSFTSQTYVDPSAMHFIFTIFSRVLAFSNSCVNPFALYWLSKSFQKHFKAQLFCCKAERPEPPVADTSLTTLAVMGTVPGTGSIQMSEISVTSFTGCSVKQAEDRF
modifications: left off: V5 (from the vector pcDNA3.1-V5-His), end not stated, state not stated | His tag (from the vector pcDNA3.1-V5-His), end not stated, state not stated
In the case of B1, the “CRE luciferase reporter activity relative to Blank (Blank = 1)” value (replicate 1) is reported as 3.5016, the “CRE luciferase reporter activity relative to Blank (Blank = 1)” value (replicate 2) is reported as 4.7486 and the “CRE luciferase reporter activity relative to Blank (Blank = 1)” value [1] is reported as 4.1251. For the same molecule, the “NFAT luciferase reporter activity relative to Blank (Blank = 1)” value (replicate 1) was 5.5943, the “NFAT luciferase reporter activity relative to Blank (Blank = 1)” value (replicate 2) was 5.6987 and the “NFAT luciferase reporter activity relative to Blank (Blank = 1)” value [1] was 5.6465. The “SRF luciferase reporter activity relative to Blank (Blank = 1)” value (replicate 1) was 3.202, the “SRF luciferase reporter activity relative to Blank (Blank = 1)” value (replicate 2) was 3.9147 and the “SRF luciferase reporter activity relative to Blank (Blank = 1)” value [1] was 3.5584.
